Here are results for 1 molecule from US20220112291A1 (Pfizer, published 2022).

In assay [1] the target is T1, human CD1a expressed on cells (human, UniProt P06126 17-327). Description: cell-based or functional assay.
Assay [2] has as its target T1, human CD1a expressed on cells. Description: cell-based or functional assay. The source holds these as a separate data set.
The target in a further assay is T2, Human C1q (human, UniProt P02745 23-245; P02746 28-253; P02747 29-245).
T2 construct: Source and form of C1q not described; also called Clq
Description: in vitro human C1q binding assay.

The target in assay [3] is T3, human single-chain CD1a-β2M recombinant protein (Human B2M-CD1a ECD-Avi-His6) (human).
T3 construct: Biotinylated in the HTRF, phage selection and Gyrolab assays; also called human CD1a; CD1a protein
Description: SPR (Biacore), IgG; antigen taken as human CD1a.

In assay [4] the target is Human CD1b (recombinant; Human B2M-CD1b ECD-His6) (human). Description: ELISA, plates coated with recombinant CD1b, titrated Ab571.
The target of assay [5] is Human CD1c (recombinant; Human B2M-CD1c ECD-His6) (human). Description: ELISA, plates coated with recombinant CD1c, titrated Ab571.
Assay [6] addresses Human CD1d (recombinant; Human B2M-CD1d ECD-His6) (human). Description: ELISA, plates coated with recombinant CD1d, titrated Ab571.
Assay [7] deals with T3, human single-chain CD1a-β2M recombinant …. Description: ELISA, plates coated with recombinant human CD1a, titrated Ab571.
Assay [8] shares this target. Description: Surface Plasmon Resonance (summary table; same experiment as Table 7).
In assay [9] the target is T4, cynomolgus CD1a-β2M recombinant protein (Cyno B2M-CD1a ECD-Avi-His6) (cynomolgus monkey).
T4 construct: also called cyno CD1a; cynomolgus monkey CD1a
T4 chain: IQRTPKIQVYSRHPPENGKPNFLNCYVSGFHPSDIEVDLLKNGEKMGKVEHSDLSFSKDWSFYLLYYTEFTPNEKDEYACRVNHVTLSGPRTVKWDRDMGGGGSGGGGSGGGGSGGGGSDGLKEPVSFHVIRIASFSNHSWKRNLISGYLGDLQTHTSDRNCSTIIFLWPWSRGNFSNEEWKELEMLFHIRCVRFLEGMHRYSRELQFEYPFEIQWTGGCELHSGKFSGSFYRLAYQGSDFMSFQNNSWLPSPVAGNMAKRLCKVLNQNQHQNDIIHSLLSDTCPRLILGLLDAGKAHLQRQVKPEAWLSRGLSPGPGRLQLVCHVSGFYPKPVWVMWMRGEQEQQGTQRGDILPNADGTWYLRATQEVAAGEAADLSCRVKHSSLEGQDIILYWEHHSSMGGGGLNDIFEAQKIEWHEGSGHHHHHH
The assay is described as above.

In assay [10] the target is T4, cynomolgus CD1a-β2M recombinant protein …. Description: SPR (Biacore 8K, 37 °C), Ab571 captured by anti-human Fc, cyno CD1a as analyte, 1:1 Langmuir fit.
In assay [11] the target is T3, human single-chain CD1a-β2M recombinant …. Description: SPR (Biacore 8K, 37 °C), Ab571 captured by anti-human Fc, human CD1a as analyte, 1:1 Langmuir fit.
The target of assay [12] is T1, human CD1a expressed on cells. Description: flow cytometry, AF-647-conjugated Ab571 on primary human monocyte-derived dendritic cells; average.
Assay [13] deals with T4, cynomolgus CD1a-β2M recombinant protein …. Description: SPR (Biacore 8K, 37 °C), Ab571 captured by anti-human Fc, cyno CD1a as analyte, 1:1 Langmuir fit; mean ± SD, n = 6.
For assay [14], the target named is T3, human single-chain CD1a-β2M recombinant …. Description: SPR (Biacore 8K, 37 °C), Ab571 captured by anti-human Fc, human CD1a as analyte, 1:1 Langmuir fit; mean ± SD, n = 6.

T1 sequence (P06126 17-327): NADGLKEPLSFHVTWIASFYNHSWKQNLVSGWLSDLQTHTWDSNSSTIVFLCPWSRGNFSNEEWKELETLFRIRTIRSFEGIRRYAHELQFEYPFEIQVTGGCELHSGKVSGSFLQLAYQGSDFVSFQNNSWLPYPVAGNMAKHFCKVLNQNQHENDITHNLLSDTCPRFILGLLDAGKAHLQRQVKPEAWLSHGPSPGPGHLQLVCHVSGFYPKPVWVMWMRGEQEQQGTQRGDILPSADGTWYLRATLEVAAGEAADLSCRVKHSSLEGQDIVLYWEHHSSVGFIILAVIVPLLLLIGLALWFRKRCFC
Human CD1d (recombinant; Human B2M-CD1d ECD-His6) (human), sequence (chain, as listed by the source limits assumed): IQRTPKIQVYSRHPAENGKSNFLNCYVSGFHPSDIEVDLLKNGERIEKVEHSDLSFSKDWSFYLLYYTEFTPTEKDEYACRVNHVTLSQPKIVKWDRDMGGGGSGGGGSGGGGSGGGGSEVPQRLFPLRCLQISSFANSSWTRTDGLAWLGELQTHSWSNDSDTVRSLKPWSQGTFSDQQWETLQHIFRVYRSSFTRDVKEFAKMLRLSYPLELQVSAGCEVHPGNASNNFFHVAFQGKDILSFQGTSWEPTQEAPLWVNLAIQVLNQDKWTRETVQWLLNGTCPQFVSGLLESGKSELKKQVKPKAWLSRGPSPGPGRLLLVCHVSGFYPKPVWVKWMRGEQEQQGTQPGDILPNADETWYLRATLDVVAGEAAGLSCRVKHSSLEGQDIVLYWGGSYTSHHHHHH
Human CD1c (recombinant; Human B2M-CD1c ECD-His6) (human), sequence (chain, as listed by the source limits assumed): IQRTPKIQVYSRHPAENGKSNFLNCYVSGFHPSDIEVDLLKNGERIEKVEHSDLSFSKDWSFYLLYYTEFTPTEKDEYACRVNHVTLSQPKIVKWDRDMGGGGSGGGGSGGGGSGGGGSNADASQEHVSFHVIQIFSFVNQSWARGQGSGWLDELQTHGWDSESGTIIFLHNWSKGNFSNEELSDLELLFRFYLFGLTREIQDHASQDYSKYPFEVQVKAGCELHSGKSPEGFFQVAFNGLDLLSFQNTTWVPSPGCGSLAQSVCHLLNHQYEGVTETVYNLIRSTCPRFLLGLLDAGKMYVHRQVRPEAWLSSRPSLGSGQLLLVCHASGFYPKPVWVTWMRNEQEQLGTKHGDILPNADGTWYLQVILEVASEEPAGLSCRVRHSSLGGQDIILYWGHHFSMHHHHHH
T2 sequence (P02745 23-245 limits assumed, chain 1 of 3): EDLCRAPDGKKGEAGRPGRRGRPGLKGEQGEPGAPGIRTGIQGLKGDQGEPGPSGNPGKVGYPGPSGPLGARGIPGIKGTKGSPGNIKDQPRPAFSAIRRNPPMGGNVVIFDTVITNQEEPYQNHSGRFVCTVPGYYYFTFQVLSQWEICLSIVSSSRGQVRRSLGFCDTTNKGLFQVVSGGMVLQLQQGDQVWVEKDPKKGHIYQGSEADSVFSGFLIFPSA
T2 sequence (P02746 28-253 limits assumed, chain 2 of 3): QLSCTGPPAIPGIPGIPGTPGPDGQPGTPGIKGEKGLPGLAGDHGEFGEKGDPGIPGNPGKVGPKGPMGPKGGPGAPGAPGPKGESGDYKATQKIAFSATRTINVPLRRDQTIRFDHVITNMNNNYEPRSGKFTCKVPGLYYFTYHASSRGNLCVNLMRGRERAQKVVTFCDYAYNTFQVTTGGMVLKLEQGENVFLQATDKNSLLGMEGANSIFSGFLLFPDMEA
T2 sequence (P02747 29-245 limits assumed, chain 3 of 3): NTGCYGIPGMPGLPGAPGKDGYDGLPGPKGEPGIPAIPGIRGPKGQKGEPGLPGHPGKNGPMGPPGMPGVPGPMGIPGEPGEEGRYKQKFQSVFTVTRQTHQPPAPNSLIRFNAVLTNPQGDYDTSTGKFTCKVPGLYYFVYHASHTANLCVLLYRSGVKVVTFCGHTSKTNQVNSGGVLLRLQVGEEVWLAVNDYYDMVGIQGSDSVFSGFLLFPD
Human CD1b (recombinant; Human B2M-CD1b ECD-His6) (human), sequence (chain, as listed by the source limits assumed): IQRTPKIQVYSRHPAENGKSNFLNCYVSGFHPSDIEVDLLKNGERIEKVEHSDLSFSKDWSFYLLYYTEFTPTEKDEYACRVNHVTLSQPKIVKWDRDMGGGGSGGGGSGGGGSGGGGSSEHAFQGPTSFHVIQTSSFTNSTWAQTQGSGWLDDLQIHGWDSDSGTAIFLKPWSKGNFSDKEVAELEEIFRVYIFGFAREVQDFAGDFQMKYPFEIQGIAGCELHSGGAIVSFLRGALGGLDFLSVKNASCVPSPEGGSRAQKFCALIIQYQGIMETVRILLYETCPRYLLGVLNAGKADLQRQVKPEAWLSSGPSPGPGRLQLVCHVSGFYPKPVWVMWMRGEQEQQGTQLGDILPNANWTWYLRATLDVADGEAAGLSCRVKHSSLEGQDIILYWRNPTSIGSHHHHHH

B1: Ab571 (antibody, human IgG1, kappa)
heavy: EVQLVESGGGLVQPGGSLRLSCAASGFTFTDHYMTWVRQAPGKGLEWVAFIRNKAGGYTTESNPAVKGRFTISRDNAKNSLYLQMNSLRAEDTAVYYCARETTGIPTGWFAYWGQGTLVTVSSASTKGPSVFPLAPSSKSTSGGTAALGCLVKDYFPEPVTVSWNSGALTSGVHTFPAVLQSSGLYSLSSVVTVPSSSLGTQTYICNVNHKPSNTKVDKKVEPKSCDKTHTCPPCPAPEAAGAPSVFLFPPKPKDTLMISRTPEVTCVVVDVSHEDPEVKFNWYVDGVEVHNAKTKPREEQYNSTYRVVSVLTVLHQDWLNGKEYKCKVSNKALPAPIEKTISKAKGQPREPQVYTLPPSREEMTKNQVSLTCLVKGFYPSDIAVEWESNGQPENNYKTTPPVLDSDGSFFLYSKLTVDKSRWQQGNVFSCSVMHEALHNHYTQKSLSLSPGK
light: DIQMTQSPSSLSASVGDRVTITCLASEDIYFDLAWYQQKPGKAPKLLIYGGDRLKEGVPSRFSGSGSGTDYTLTISSLQPEDFATYYCQQSYSYPYTFGQGTKLEIKRTVAAPSVFIFPPSDEQLKSGTASVVCLLNNFYPREAKVQWKVDNALQSGNSQESVTEQDSKDSTYSLSSTLTLSKADYEKHKVYACEVTHQGLSSPVTKSFNRGEC
notes: Lead optimized variant of Ab138; human IgG1 effector null / kappa; HC with or without terminal lysine; Used AF-647- or FITC-conjugated in the dendritic cell flow cytometry assays; also called FITC-Ab571; AF-647-conjugated Ab571
On to B1, for which, in assay [1], the “Inhibition of CD69 expression, IC50” value is 1.11 nM. The “Human Jurkat T cell Activation: IC50 CD69 Expression” value in assay [2] was 0.894 nM. Moreover, in assay [2], the “Human Jurkat T cell Activation: IC50 IL-2” value stood at 0.268 nM. In addition, the binding result in the assay with Human C1q was “no binding (tested: Up to 30 µg/mL (C1q))”; in assay [4], “no binding”; in assay [5], “no binding”; in assay [6], “no binding”. Also, the Kd in assay [3] is 0.17 nM; in [8], 0.181 nM; in assay [9], 0.06 nM; in [13], 0.0604 nM; in assay [14] it was 0.181 nM. The EC50 is 0.00652 nM in [7] and 7.83 nM in assay [12]. In addition, the koff in [10] was 9.8e-05 s⁻¹; in assay [11], 0.000228 s⁻¹. In addition, the kon in [10] came to 1.64e+06 M⁻¹ s⁻¹; in [11], 1.26e+06 M⁻¹ s⁻¹.
